Values of other authors, collected in publication PMC9949911.

Target: IL-18bp (Homo sapiens) (UniProt O95998)
Sequence (O95998 31-194): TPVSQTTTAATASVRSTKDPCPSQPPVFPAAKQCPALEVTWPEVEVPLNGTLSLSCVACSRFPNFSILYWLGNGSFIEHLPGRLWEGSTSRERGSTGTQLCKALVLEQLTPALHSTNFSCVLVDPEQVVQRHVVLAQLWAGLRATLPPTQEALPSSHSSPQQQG

Sequence of IL-18 (Q14116 37-193): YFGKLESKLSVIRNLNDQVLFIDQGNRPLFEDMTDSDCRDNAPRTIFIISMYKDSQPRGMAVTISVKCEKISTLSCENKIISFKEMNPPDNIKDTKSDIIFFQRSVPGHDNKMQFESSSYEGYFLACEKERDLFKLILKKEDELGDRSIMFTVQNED

IL-18 (from UniProt Q14116)
Kd: 0.05 nM
